Assay results reported in patent US20260184782A1 (TWIST BIOSCIENCE, published 2026).

T1: human TIGIT-Fc (human, UniProt Q495A1 22-141, limits assumed)
T1 construct: not shown: Fc; not described
T1 sequence (looked up): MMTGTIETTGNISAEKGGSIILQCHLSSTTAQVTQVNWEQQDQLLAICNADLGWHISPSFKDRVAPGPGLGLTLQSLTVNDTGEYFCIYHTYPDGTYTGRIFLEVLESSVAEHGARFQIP

T2: recombinant human TIGIT (human, UniProt Q495A1 22-141, limits assumed)
T2 construct: recombinant human TIGIT used in Carterra SPR; also called hTIGIT
T2 sequence (looked up): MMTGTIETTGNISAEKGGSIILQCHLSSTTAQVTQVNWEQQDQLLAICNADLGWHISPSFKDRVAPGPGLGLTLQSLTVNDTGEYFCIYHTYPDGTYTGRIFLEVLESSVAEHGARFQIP


Each binder was assayed against T1, human TIGIT-Fc (assay: CD155 competition ELISA, single point; further: test concentration or dose not given here).
Experimental: TIGIT/CD155 inhibition of VHH-Fcs were assessed using an ELISA assay (Table 10B). Briefly, human TIGIT-Fc was coated on a plate & then incubated with VHH-Fcs and human CD155-biotin. Bound CD155-biotin was detected using a streptavidin-HRP conjugate visualized with TMB. Strong inhibitors from the single point screen were titrated to determine EC50 (Table 10C).

Binder | OD (450 nm) [OD]
TIGIT-SC95 (Fc fusion, VHH-Fc) VHH: EVQLVESGGGLVQPGGSLRLSCAASGPTFSTNVMGWFRQAPGKEREFVSSIHWGGSSTVYADSVKGRFTISADNSKNTAYLQMNSLKPEDTAVYYCVTYSAYDFRNAWGQGTLVTVSS | 0.613
TIGIT-SC60 (Fc fusion, VHH-Fc) VHH: EVQLVESGGGLVQPGGSLRLSCAASGFTFSPSWMGWFRQAPGKEREWVASVLRGGYTWYADSVKGRFTISADNSKNTAYLQMNSLKPEDTAVYYCARDDLDYWGQGTLVTVSS | 0.349
TIGIT-SC156 (Fc fusion, VHH-Fc) VHH: EVQLVESGGGLVQPGGSLRLSCAASGNTFSGGFMGWFRQAPGKEREWVASVLRGGYTWYADSVKGRFTISADNSKNTAYLQMNSLKPEDTAVYYCTTEGYDFWSGYYDYWGQGTLVTVSS | 0.701

Continued, values first:

OD (450 nm) [OD] | Binder
0.524 | TIGIT-SC188 (Fc fusion, VHH-Fc) VHH: EVQLVESGGGLVQPGGSLRLSCAASGNTFSGGFMGWFRQAPGKEREWVASVLRGGYTWYADSVKGRFTISADNSKNTAYLQMNSLKPEDTAVYYCTTDSLPGWGQGTLVTVSS
0.423 | TIGIT-SC162 (Fc fusion, VHH-Fc) VHH: EVQLVESGGGLVQPGGSLRLSCAASGNTFSGGFMGWFRQAPGKEREWVASVLRGGYTWYADSVKGRFTISADNSKNTAYLQMNSLKPEDTAVYYCTTDRAIGVRPLFDHWGQGTLVTVSS

What follows are binders tested against T2, recombinant human TIGIT (assay: SPR Carterra, average).
Experimental: Binding affinities of VHH-Fc proteins to recombinant human TIGIT were measured by SPR using a Carterra instrument (Table 10A). […] Average values reported from measurements from 1-2 samples.

Binder | Kd [nM] | koff [s⁻¹] | kon [M⁻¹ s⁻¹]
TIGIT-SC137 (Fc fusion, VHH-Fc fusion in assay) VHH: EVQLVESGGGLVQPGGSLRLSCAASGFTLENNMMGWFRQAPGKEREFVAAISRSGTLKAYADSVKGRFTISADNSKNTAYLQMNSLKPEDTAVYYCSLVSGPRWYWGQGTLVTVSS | 102 | 0.00688 | 67500
TIGIT-SC105 (Fc fusion, VHH-Fc fusion in assay) VHH: EVQLVESGGGLVQPGGSLRLSCAASGFAFSRYGMGWFRQAPGKERELVATIGWSGSSTFYADSVKGRFTISADNSKNTAYLQMNSLKPEDTAVYYCARDGGPYYYGLDVWGQGTLVTVSS | 189 | 0.0116 | 61600
TIGIT-SC45 (Fc fusion, VHH-Fc fusion in assay) VHH: EVQLVESGGGLVQPGGSLRLSCAASGGTFNAMGWFRQAPGKEREWVASVLRGGYTWYADSVKGRFTISADNSKNTAYLQMNSLKPEDTAVYYCAKDGGSSGTYQNWWGQGTLVTVSS | 103 | 0.00929 | 89900
TIGIT-SC94 (Fc fusion, VHH-Fc fusion in assay) VHH: EVQLVESGGGLVQPGGSLRLSCAASGSSFSAYAMGWFRQAPGKEREFVSLINWSSGKTIYADSVKGRFTISADNSKNTAYLQMNSLKPEDTAVYYCARVRIFNHVHRPSYYFDYWGQGTLVTVSS | 549 | 0.027 | 49200
TIGIT-SC192 (Fc fusion, VHH-Fc fusion in assay) VHH: EVQLVESGGGLVQPGGSLRLSCAASGFTFSVYWMGWFRQAPGKEREFVAAISRSGTLKEYADSVKGRFTISADNSKNTAYLQMNSLKPEDTAVYYCARGSGWPKIHFDYWGQGTLVTVSS | 131 | 0.0715 | 545000
TIGIT-SC27 (Fc fusion, VHH-Fc fusion in assay) VHH: EVQLVESGGGLVQPGGSLRLSCAASGLTFSNYVMGWFRQAPGKEREVVAGILSDGRELYADSVKGRFTISADNSKNTAYLQMNSLKPEDTAVYYCARDVFGEGHWGQGTLVTVSS | 80.6 | 0.00624 | 80900
TIGIT-SC140 (Fc fusion, VHH-Fc fusion in assay) VHH: EVQLVESGGGLVQPGGSLRLSCAASGNTFSGGFTFDRSWMGWFRQAPGKEREWVASVLRGGYTWYADSVKGRFTISADNSKNTAYLQMNSLKPEDTAVYYCAGDRYYDFWSGPNSGDYWGQGTLVTVSS | 68.7 | 0.00474 | 68900
TIGIT-SC96 (Fc fusion, VHH-Fc fusion in assay) VHH: EVQLVESGGGLVQPGGSLRLSCAASGMTTIGPMGWFRQAPGKEREFVAAINWSGSSTVYADSVKGRFTISADNSKNTAYLQMNSLKPEDTAVYYCVTYSAYDFRNAWGQGTLVTVSS | 113 | 0.0176 | 166000
TIGIT-SC109 (Fc fusion, VHH-Fc fusion in assay) VHH: EVQLVESGGGLVQPGGSLRLSCAASGRDISSYIMGWFRQAPGKERELVAIIDTNGDDTLYADSAKGRFTISADNSKNTAYLQMNSLKPEDTAVYYCANGGRVWWAFDYWGQGTLVTVSS | 121 | 0.00468 | 38700
TIGIT-SC141 (Fc fusion, VHH-Fc fusion in assay) VHH: EVQLVESGGGLVQPGGSLRLSCAASGNAFSSSVMGWFRQAPGKEREFVAGIWRSGSLKAYADSVKGRFTISADNSKNTAYLQMNSLRPEDTAVYYCARAYVGMTTVTFDHWGQGTLVTVSS | 903 | 0.151 | 167000
TIGIT-SC118 (Fc fusion, VHH-Fc fusion in assay) VHH: EVQLVESGGGLVQPGGSLRLSCAASGRTFSFMGWFRQAPGKEREWVASVLRGGYTWYADSVKGRFTISADNSKNTAYLQMNSLKPEDTAVYYCAKDGGWFDPWGQGTLVTVSS | 114 | 0.00252 | 29700

Next, values leading:

Kd [nM] | koff [s⁻¹] | kon [M⁻¹ s⁻¹] | Binder
1060 | 0.24 | 226000 | TIGIT-SC146 (Fc fusion, VHH-Fc fusion in assay) VHH: EVQLVESGGGLVQPGGGLRLSCAASGFTLENNMMGWFRQAPGKEREFVAAISASGTLRAYADSVKGRFTISADNSKNTAYLQMNSLKPEDTAVYYCAKGGQAGPMAFYFDYWGQGTLVTVSS
119 | 0.0854 | 718000 | TIGIT-SC205 (Fc fusion, VHH-Fc fusion in assay) VHH: EVQLVESGGGLVQPGGSLRLSCAASGFTFDRSWMGWFRQAPGKEREFVAAIWRSGTLKAYADSVKGRFTISADNGKNTAYLQMNSLKPEDTAVYYCAEGGTTAWGWFVPWGQGTLVTVSS
124 | 0.0335 | 444000 | TIGIT-SC174 (Fc fusion, VHH-Fc fusion in assay) VHH: EVQLVESGGGLVQPGGSLRLSCAASGFLFDSYAMGWFRQAPGKEREFVAAISWSGGSTYYADSVKGRFTISADNSKNTAYLQMNSLKPEDTAVYYCTTDALRFLEWPWWGQGTLVTVSS
321 | 0.128 | 399000 | TIGIT-SC199 (Fc fusion, VHH-Fc fusion in assay) VHH: EVQLVESGGGLVQPGGSLRLSCAASGFSSAQYAMGWFRQAPGKERELVASIDSEGRTNYADSVKGRFTISADNSKNTAYLQMNSLKPEDTAVYYCTRDGGFDPWGQGTLVTVSS
1320 | 0.16 | 121000 | TIGIT-SC148 (Fc fusion, VHH-Fc fusion in assay) VHH: EVQLVESGGGLVQPGGSLRLSCAASGDIGSINAMGWFRQAPGKEREFVAGIWRSGNLKAYADSVKGRFTISADNSKNTAYLQMSSLKPEDTAVYYCARGNIVVVPAAFVIWFDPWGQGTLVTVSS
1470 | 0.155 | 106000 | TIGIT-SC152 (Fc fusion, VHH-Fc fusion in assay) VHH: EVQLVESGGGLVQPGGNLRLSCAASGSTFSKHHAMGWFRQAPGKEREFVAGIIRSGTLKAYADSVKGRFTISADNSKNTAYLQMNSLKPEDTAVYYCTRGRAARHNLWYFDLWGQGTLVTVSS
625 | 0.0934 | 93800 | TIGIT-SC202 (Fc fusion, VHH-Fc fusion in assay) VHH: EVQLVESGGGLVQPGGSLRLSCAASGFTFSPSWMGWFRQAPGKEREWVASVLRGGYTWYADSVKGRFTISADNSKNTAYLQMNSLKPEDTAVYYCTTDGGYSGIVGFAWGQGTLVTVSS
393 | 0.168 | 428000 | TIGIT-SC181 (Fc fusion, VHH-Fc fusion in assay) VHH: EVQLVESGGGLVQPGGSLRLSCAASGFTLSSNWMGWFRQAPGKEREFVASVLRGGYTWYADSVKGRFTISADNSKNTAYLQMNSLKPEDTAVYYCARDAYYYGLWGQGTLVTVSS
340 | 0.00279 | 48600 | TIGIT-SC177 (Fc fusion, VHH-Fc fusion in assay) VHH: EVQLVESGGGLVQPGGSLRLSCAASGFTFSPSWMGWFRQAPGKEREWVASVLRGGYTWYADSVKGRFTISADNSKNTAYLQMNSLKPEDTAVYYCATDRGPAMVFNLWGQGTLVTVSS
841 | 0.178 | 211000 | TIGIT-SC193 (Fc fusion, VHH-Fc fusion in assay) VHH: EVQLVESGGGLVQPGGSLRLSCAASGFTFSDYWMGWFRQAPGKEREFVAAISRSGTLKAYADSVKGRFTISADNSKNTAYLQMNSLKPEDTAVYYCARGSGWPKIHFDYWGQGTLVTVSS
474 | 0.239 | 504000 | TIGIT-SC143 (Fc fusion, VHH-Fc fusion in assay) VHH: EVQLVESGGGLVQPGGSLRLSCAASGFTLGYYVMGWFRQAPGKEREFVAAISASGTLRAYADSVEGRFTISADNSKNTAYLQMNSLKPEDTAVYYCARAELGYSYGSVDGYWGQGTLVTVSS
170 | 0.005 | 98700 | TIGIT-SC186 (Fc fusion, VHH-Fc fusion in assay) VHH: EVQLVESGGGLVQPGGSLRLSCAASGNTFSGGFMGWFRQAPGKEREYVASVLRGGYTWYADSVKGRFTISADNSKNTTYLQMNSLKPEDTAVYYCTTDRGYNWNYDWGQGTLVTVSS
